PMC7955952

Substrate: Nc1ncnc2c1ncn2[C@@H]1O[C@H](COP(=O)(O)OP(=O)(O)OP(=O)(O)O)[C@@H](O)[C@H]1O
Assay: Michaelis–Menten saturation kinetics
Format: biochemical, Homo sapiens
Conditions: Mn2+ ATP-binding pocket

B1: Focal adhesion kinase (FAK) (Homo sapiens) (protein)
chain: ETDDYAEIIDEEDTYTMPSTRDYEIQRERIELGRCIGEGQFGDVHQGIYMSPENPALAVAIKTCKNCTSDSVREKFLQEALTMRQFDHPHIVKLIGVITENPVWIIMELCTLGELRSFLQVRKYSLDLASLILYAYQLSTALAYLESKRFVHRDIAARNVLVSSNDCVKLGDFGLSRYMEDSTYYKASKGKLPIKWMAPESINFRRFTSASDVWMFGVCMWEILMHGVKPFQGVKNNDVIGRIENGERLPMPPNCPPTLYSLMTKCWAYDPSRRPRFTELKAQLSTILEEEKAQQEERMRMESRRQ
  Km: 6.4 ± 1.2 µM
